{
  "source": "the RNAGym collection of RNA variant scans (doi:10.7554/elife.90254)",
  "parents": {"B1": {"name": "LINE1-mini (parent)", "chain": "GGCAGAGCUCAACACAGCGUGGCAAAGUGGCUGUGGCUAGACUGCC"}},
  "data": [
    {"variants_of": "B1", "assay": "self-cleavage, relative activity (ratio to wild type); higher = more cleavage; in vitro, sequencing; the parent is a self-cleaving ribozyme", "values": [
      {"variant": "GGCAGAGCUCAACACACCGUGGCAAAGUGGCUGUGGCUAGUCUGCC", "note": "[G17C A41U]", "self-cleavage": 0.49},
      {"variant": "GGCAGAGCUCAACACAGCGUGGCAACGUUGCUGUGGCUAGACUGCC", "note": "[A26C G29U]", "self-cleavage": 0.54},
      {"variant": "GGCAGAGCUCGAGACAGCGUGGCAAAGUGGCUGUGGCUAGACUGCC", "note": "[A11G C13G]", "self-cleavage": 0.02},
      {"variant": "GGCAGAGCUCAACACAGCGUGGCAAAGUGGCUAUGGCUAGACUGCG", "note": "[G33A C46G]", "self-cleavage": 0.08},
      {"variant": "GGCAGAGCUCAACACAGCGUGGCAAAGUGGCUGUGGCUAAAUUGCC", "note": "[G40A C42U]", "self-cleavage": 0.09},
      {"variant": "GGCAGAGCGCAACACAGCGUGCCAAAGUGGCUGUGGCUAGACUGCC", "note": "[U9G G22C]", "self-cleavage": 0.1},
      {"variant": "GGCAGAGCUCAACUCAGCGUGGCAAAGGGGCUGUGGCUAGACUGCC", "note": "[A14U U28G]", "self-cleavage": 0.3},
      {"variant": "GGCAGAGCUCAACACAGGGCGGCAAAGUGGCUGUGGCUAGACUGCC", "note": "[C18G U20C]", "self-cleavage": 0.4},
      {"variant": "GGCAGAGAUCAACACAGCGUGGCAAAGUGGCUGUGGCUAGAGUGCC", "note": "[C8A C42G]", "self-cleavage": 0.19},
      {"variant": "GGCAGAGGUCGACACAGCGUGGCAAAGUGGCUGUGGCUAGACUGCC", "note": "[C8G A11G]", "self-cleavage": 0.03},
      {"variant": "GGCAGAGCUCAACACAGCGUGGCAAAGUCGCUGUGGCUAGACGGCC", "note": "[G29C U43G]", "self-cleavage": 0.01},
      {"variant": "GGCAGAGCUCAACACAGCGUGGCAAAGUGGCUGCGGCUCGACUGCC", "note": "[U34C A39C]", "self-cleavage": 0.09},
      {"variant": "GGUAGAGCUCAACCCAGCGUGGCAAAGUGGCUGUGGCUAGACUGCC", "note": "[C3U A14C]", "self-cleavage": 0.08},
      {"variant": "GGCAGAGCUGUACACAGCGUGGCAAAGUGGCUGUGGCUAGACUGCC", "note": "[C10G A11U]", "self-cleavage": 0.04},
      {"variant": "GGCAGAGCUUAACUCAGCGUGGCAAAGUGGCUGUGGCUAGACUGCC", "note": "[C10U A14U]", "self-cleavage": 0.14},
      {"variant": "GGCAGAGCUCAACACAGCGUGGCAAAGUGGCUGUAGCUAGACUGCG", "note": "[G35A C46G]", "self-cleavage": 0.15},
      {"variant": "GGCAGAGCUCAACACUGCGUGGCAAAGUGGCUGUGGCUAGAGUGCC", "note": "[A16U C42G]", "self-cleavage": 0.07},
      {"variant": "GGCAGAGCCCAACACAGCGUGGCAAAGUGGCUGUGGCUAGACAGCC", "note": "[U9C U43A]", "self-cleavage": 0.03},
      {"variant": "GGCAGAGCUCAACACAGCGUGGCAAAGUGCCUGUCGCUAGACUGCC", "note": "[G30C G35C]", "self-cleavage": 0.09},
      {"variant": "GGCAGACCUCAACACAGCGUAGCAAAGUGGCUGUGGCUAGACUGCC", "note": "[G7C G21A]", "self-cleavage": 0.2},
      {"variant": "GGCUGAGCUCAACACAGCGUGGCAAAGUUGCUGUGGCUAGACUGCC", "note": "[A4U G29U]", "self-cleavage": 0.23},
      {"variant": "GGCAGAGCUCAACACAGCGUGGCAAAGUGGAUGUGGCUAGCCUGCC", "note": "[C31A A41C]", "self-cleavage": 0.03},
      {"variant": "GGCAGAGCUCAACACAGCGUGGUAAAGUGGCUGUAGCUAGACUGCC", "note": "[C23U G35A]", "self-cleavage": 0.19},
      {"variant": "GGCAGAGCUCGUCACAGCGUGGCAAAGUGGCUGUGGCUAGACUGCC", "note": "[A11G A12U]", "self-cleavage": 0.04},
      {"variant": "GGCAGAGCUCAACACAGCGUUGCAAAGUGGCUGUGGCUAGACGGCC", "note": "[G21U U43G]", "self-cleavage": 0.07},
      {"variant": "GGCAGAGCUCAACACAGCGUGGCAAAGUGGCUGUGCCUAGAGUGCC", "note": "[G36C C42G]", "self-cleavage": 0.07},
      {"variant": "GGCAGAGCUCAACACAGCGUGGCCAAGUGGCUGUGGCUGGACUGCC", "note": "[A24C A39G]", "self-cleavage": 0.07},
      {"variant": "GGCAGAGCUCAACACAGCGUGGCAAAGUGGGUGUGUCUAGACUGCC", "note": "[C31G G36U]", "self-cleavage": 0.05},
      {"variant": "GGCAGAGCGCAACACAGCGUGGCAAAGUGGCUGUGGCUAGACUGUC", "note": "[U9G C45U]", "self-cleavage": 0.16},
      {"variant": "GGCAGAGCUCAACACAGCGUGGCAAAGAGGCUGUGGCUAGUCUGCC", "note": "[U28A A41U]", "self-cleavage": 0.42},
      {"variant": "GGCCGAGCUCAACACAGCGUGGCAAAGUGGCUGUGGCUAGACUCCC", "note": "[A4C G44C]", "self-cleavage": 0.12},
      {"variant": "GGAAGAGCUCAACACAGCGUGGCAAAGUGGCUUUGGCUAGACUGCC", "note": "[C3A G33U]", "self-cleavage": 0.15},
      {"variant": "GGCAGAGCUAAACACAGCGUGGCAAAGUGGCUCUGGCUAGACUGCC", "note": "[C10A G33C]", "self-cleavage": 0.03},
      {"variant": "GGCACAGCUCAACACAGCGUGGCAAACUGGCUGUGGCUAGACUGCC", "note": "[G5C G27C]", "self-cleavage": 0.06},
      {"variant": "GGCACAGCUCAACACAGCGUGGCAAAUUGGCUGUGGCUAGACUGCC", "note": "[G5C G27U]", "self-cleavage": 0.09},
      {"variant": "GGCCGAGCUCAACACAGCGUGGCAAACUGGCUGUGGCUAGACUGCC", "note": "[A4C G27C]", "self-cleavage": 0.07},
      {"variant": "GGCAGAGCACAACACAGCGUGGCAAAGUGGCUCUGGCUAGACUGCC", "note": "[U9A G33C]", "self-cleavage": 0.07},
      {"variant": "GGCAGAGCUCAACACAGCGUGGCAAGGUGGCUGUGGAUAGACUGCC", "note": "[A26G C37A]", "self-cleavage": 0.02},
      {"variant": "GGCAGAGCUCAACACAGUGUGGCAAAGUGCCUGUGGCUAGACUGCC", "note": "[C18U G30C]", "self-cleavage": 1.82},
      {"variant": "GGCAGGGUUCAACACAGCGUGGCAAAGUGGCUGUGGCUAGACUGCC", "note": "[A6G C8U]", "self-cleavage": 0.22},
      {"variant": "GGCAGAGCUCAACACAGCGUGGCAAAGUGGCUGUGGAUUGACUGCC", "note": "[C37A A39U]", "self-cleavage": 0.22},
      {"variant": "GGCAGAGCUGAACACAGCGUGGCAAAGUGGGUGUGGCUAGACUGCC", "note": "[C10G C31G]", "self-cleavage": 0.02},
      {"variant": "GGCAGAGCUCCACACAGCGUGGCAAAGUGGCUGUGGCUAGACUGAC", "note": "[A11C C45A]", "self-cleavage": 0.05},
      {"variant": "GGCAGAGCUCAACACAGCGCGGCAAAGUGGCUGUGGCUAGACUGCA", "note": "[U20C C46A]", "self-cleavage": 0.7},
      {"variant": "GGCAGAGCUCAACUCAGCGUGGCAAAGUGGCUGUGGCUAGACUGAC", "note": "[A14U C45A]", "self-cleavage": 0.07},
      {"variant": "GGCACAGCUCAACACAGCGUGGCAAUGUGGCUGUGGCUAGACUGCC", "note": "[G5C A26U]", "self-cleavage": 0.06},
      {"variant": "GGCAGAGCUCAACACAGCGAGGCAAAGUGGCUGUGGCUUGACUGCC", "note": "[U20A A39U]", "self-cleavage": 0.62},
      {"variant": "GGCAGAGCUCAACACAGCGUGGCAAAGUGGCUGCGGCUAGACUACC", "note": "[U34C G44A]", "self-cleavage": 0.12},
      {"variant": "GGCAGGGCUCAACACAGCGUGGCAAAGUGGCUGUGGCUAGACUACC", "note": "[A6G G44A]", "self-cleavage": 0.46},
      {"variant": "GGCAGAGCUCAACACAGCGCGGCAAAGUGGCUUUGGCUAGACUGCC", "note": "[U20C G33U]", "self-cleavage": 0.14},
      {"variant": "GGCAGAGCUCAACACAGUGUGGAAAAGUGGCUGUGGCUAGACUGCC", "note": "[C18U C23A]", "self-cleavage": 1.27},
      {"variant": "GGCAGAGCUCAACACAUCGUGGCACAGUGGCUGUGGCUAGACUGCC", "note": "[G17U A25C]", "self-cleavage": 0.12},
      {"variant": "GGCAGAGCUCAGCACAGCGUGGCAAAGUGGCUGUUGCUAGACUGCC", "note": "[A12G G35U]", "self-cleavage": 0.04},
      {"variant": "GGCAGAGCUCAACAUAGCGUGGCAAAGUGGCUGUGGCUAGACGGCC", "note": "[C15U U43G]", "self-cleavage": 0.44},
      {"variant": "GGCAGAGCUCAGCACAGCGUGGCAAGGUGGCUGUGGCUAGACUGCC", "note": "[A12G A26G]", "self-cleavage": 0.03},
      {"variant": "GGCAGAGCUCAACACAGCGUGGCAAGGUGGCUGUCGCUAGACUGCC", "note": "[A26G G35C]", "self-cleavage": 0.1}
    ]}
  ]
}
